The source of these data is article PMC10255477, “The Inhibitory Effects and Cytotoxic Activities of the Stem Extract of Nepenthes miranda against Single-Stranded DNA-Binding Protein and Oral Carcinoma Cells”.

Data set [1] concerns the target T1, KpSSB (single-stranded DNA-binding protein) (Klebsiella pneumoniae, UniProt A6TGW7 1-174). Nature of the data set: EMSA; EMSA: 40 mM Tris-HCl pH 7.5, 50 mM NaCl, 37 °C, 60 min; DNA 30 fmol/uL; 8% native PAGE in TBE; [Protein]50 by linear interpolation. The note with it: protein: recombinant; chain copies: 4; label: 5' biotin. Background: In EMSA bound probe runs differently from free probe, usually more slowly.

The target of data set [2] is T1, KpSSB (single-stranded DNA-binding …). Nature of the data set: EMSA; up to 5000 nM protein, no shift; EMSA: 40 mM Tris-HCl pH 7.5, 50 mM NaCl, 37 °C, 60 min; DNA 30 fmol/uL; 8% native PAGE in TBE; [Protein]50 by linear interpolation. To be noted: protein: recombinant, chain copies: 4.

T1 sequence (A6TGW7 whole entry): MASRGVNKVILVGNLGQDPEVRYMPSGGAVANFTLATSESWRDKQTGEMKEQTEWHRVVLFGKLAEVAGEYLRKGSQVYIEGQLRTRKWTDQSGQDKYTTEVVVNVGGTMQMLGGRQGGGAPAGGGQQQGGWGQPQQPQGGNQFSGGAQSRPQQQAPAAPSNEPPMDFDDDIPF

For the molecule TTTTTTTTTTTTTTTTTTTTTTTTTTTTTTTTTTT (ssDNA) [dT35], in data set [1], the “apparent K (half saturation)” value was found to be 117 ± 18 nM.

Consider TTTTTTTTTTTTTTTTTTTT (ssDNA) [dT20], for which, in data set [2] (label: 5' biotin), the binding result is listed as “no binding”.

B1: PS4/PS3 (dsDNA)
DNA 1: GGGTACCGAGCTATCCGAATTCGGG
DNA 2: CCCGAATTCGGATAGCTCGGTACCC
For B1, the binding result in data set [2] (blunt, 25 bp) was “no binding”.

For TTTTTTTTTTTTTTTTTTTTTTTTTTTTTT (ssDNA) [dT30], the “apparent K (half saturation)” value in data set [1] amounted to 155 ± 20 nM.
